Patent US20150056189A1 (Daiichi Sankyo, published 2015)
Changes are numbered by the printed parent chain. Names may count otherwise.

T1: human Siglec-15 V-set domain (human, UniProt Q6ZMC9 39-165)
T1 construct: range 39-165; Purified to a single 14 kDa band; Used as the analyte in SPR; also called hSiglec-15 (39-165) V-set domain; human Siglec-15 protein
T1 sequence (looked up): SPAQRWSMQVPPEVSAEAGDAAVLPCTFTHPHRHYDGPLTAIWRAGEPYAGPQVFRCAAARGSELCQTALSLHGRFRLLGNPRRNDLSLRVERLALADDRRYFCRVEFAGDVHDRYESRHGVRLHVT

B1: K3-1115 antibody (antibody, human IgG2, kappa, V domains shown)
VH: EVQLVESGGGLVQPGGSLRLSCAASGFNFNDYFMNWVRQAPGKGLEWVAQIRNKIYTYATFYAASVKGRFTISRDNAKNSLYLQMNSLRAEDTAVYYCARSLTGGDYFDYWGQGTLVTVSS
VL: EILMTQSPATLSLSPGERATLSCRASQSVTISGYSFIHWYQQKPGQAPRLLIYRASNLASGIPARFSGSGSGTDFTLTISSLEPEDFALYYCQQSRKSPWTFGQGTKVEIKR
notes: Humanized form of the rat antibody #32A1; Full-length IgG made in FreeStyle 293F cells; Used as the control antibody; In SPR it was captured through an anti-human IgG antibody; also called h#32A1-H1-1/L2-15
B2: K3-1115/T103E antibody (antibody, human IgG2, kappa, V domains shown)
VH: B1 VH with T103E
VL: B1 VL
notes: Full-length IgG made in FreeStyle 293F cells

How the values were obtained:
[1] = target: T1, human Siglec-15 V-set domain; assay: SPR, Biacore T200; antibody captured via anti-human IgG on CM5 chip, antigen as analyte, 1:1 binding model
Method: (§1) As a running buffer, HBS-EP+ (10 mM HEPES pH 7.4, 0.15 M NaCl, 3 mM EDTA, 0.05% surfactant P20) was used. On the chip having the antibody bound thereto, a dilution series of an antigen solution (0.003 to 7 nM) was added at a flow rate of 90 μL/min for 233 seconds, and subsequently, the dissociation phase was monitored for 2000 to 3600 seconds. As a regeneration solution, 3 M MgCl₂ was added at a flow rate of 10 μL/min for 30 seconds. In the analysis of data, a 1:1 binding model of analysis software (Biacore T200 Evaluation software, version 1.0) was used, and an association rate constant (kon), a dissociation rate constant (koff), and a dissociation constant (KD; KD=koff/kon) were calculated.

[2] = target: T1, human Siglec-15 V-set domain; assay: SPR, Biacore T200; ratio of KD values against K3-1115
Method: as §1

Row | Binder | Kd [1] [nM] | fold enhancement of affinity compared with K3-1115 [2] [times]
1 | B1 | 0.26 | 
2 | B2 | 0.0041 | ~60
